These results are taken from patent US20240336649A1 (MIT, published 2024).

Data set [1] deals with the molecule itself. Briefly: EMSA with a 22 bp double-stranded E-box DNA probe. This is an indirect sign: the gel shows DNA binding, and the filing reads the missing shift as missing homodimerisation. The text has this: (§1) The three synthetic analogs 10, 11, and 12 can form non-covalent dimers and bind to the target E-box DNA (5′-[…]-3′). […] However, it is not possible to determine which dimeric species form in a solution containing two different monomers. For instance, upon mixing Max (11) and Omomyc (12), three different dimers (Max/Max, Omomyc/Omomyc and Max/Omomyc) can form and potentially bind to DNA (FIG. 18). To assess the activity of these protein complexes in a reliable manner, access to well-defined covalent protein dimers is critical.
On the technique in general: Mobility shift assays separate free from complexed probe on a gel.

Data set [2] concerns the molecule itself. The experiment in a line: non-covalent homodimer inferred from EMSA with E-box DNA (Omomyc+Omomyc).
Source text: as §1

B1: Myc analog 10 (synthetic Myc monomer with a C-terminal cysteine) (other)
chain: NVKRRTHNVLERQRRNELKRSFFALRDQIPELENNEKAPKVVILKKATAYILSVQAEEQKLISEEDLLRKRREQLKHKLEQLGGC
notes: also called Myc 10
As for B1, the binding result in data set [1] is “no binding”.

B2: Omomyc analog 12 (synthetic Omomyc monomer with a C-terminal cysteine) (other)
chain: MATEENVKRRTHNVLERQRRNELKRSFFALRDQIPELENNEKAPKVVILKKATAYILSVQAETQKLISEIDLLRKQNEQLKHKLEQLRNSC
notes: Artificial mini-protein; the structure of 12 is in a drawing; also called Omomyc 12; Omomyc (12)
On to B2, for which the binding result in data set [2] is “binds”.
